Experimental data published in the supplement of paper PMC11246515.
± gives the standard deviation of the averaged measurements.

Experiment: total protein half-life in vivo (active degradation + dilution); higher = more stable protein
[1] = E. coli NCM3722 delta-clpP delta-lon delta-hslV, growth: N-lim chemostat, doubling time 6 h
[2] = E. coli NCM3722 delta-clpP, growth: N-lim chemostat, doubling time 6 h
[3] = E. coli NCM3722 delta-hslV, growth: N-lim chemostat, doubling time 6 h
[4] = E. coli NCM3722 delta-lon, growth: N-lim chemostat, doubling time 6 h
[5] = E. coli NCM3722 delta-smpB, growth: N-lim chemostat, doubling time 6 h
[6] = wild type E. coli NCM3722, growth: C-lim chemostat, doubling time 3 h
[7] = wild type E. coli NCM3722, growth: C-lim chemostat, doubling time 6 h
[8] = wild type E. coli NCM3722, growth: C-lim chemostat, doubling time 12 h
[9] = wild type E. coli NCM3722, growth: N-lim chemostat, doubling time 6 h
[10] = wild type E. coli NCM3722, growth: N-lim chemostat, doubling time 12 h
[11] = wild type E. coli NCM3722, growth: P-lim chemostat, doubling time 6 h
[12] = wild type E. coli NCM3722, growth: P-lim chemostat, doubling time 12 h

Sequence | total protein half-life in vivo [1] [h] | total protein half-life in vivo [2] [h] | total protein half-life in vivo [3] [h] | total protein half-life in vivo [4] [h] | total protein half-life in vivo [5] [h] | total protein half-life in vivo [6] [h] | total protein half-life in vivo [7] [h] | total protein half-life in vivo [8] [h] | total protein half-life in vivo [9] [h] | total protein half-life in vivo [10] [h] | total protein half-life in vivo [11] [h] | total protein half-life in vivo [12] [h]
MIRSMTAYARREIKGEWGSATWEMRSVNQRYLETYFRLPEQFRSLEPVVRERIRSRLTRGKVECTLRYEPDVSAQGELILNEKLAKQLVTAANWVKMQSDEGEINPVDILRWPGVMAAQEQDLDAIAAEILAALDGTLDDFIVARETEGQALKALIEQRLEGVTAEVVKVRSHMPEILQWQRERLVAKLEDAQVQLENNRLEQELVLLAQRIDVAEELDRLEAHVKETYNILKKKEAVGRRLDFMMQEFNRESNTLASKSINAEVTNSAIELKVLIEQMREQIQNIE | 4.67 ± 0.13 | 4.26 ± 0.17 | 4.15 ± 0.007 | 4.46 ± 0.36 | 4.24 ± 0.048 | 3.203 ± 0.032 | 5.69 ± 0.37 | 9.42 ± 0.49 | 4.21 ± 0.05 | 6.64 ± 0.2 | 5.83 ± 0.37 | 12.9 ± 1.8
MISDIRKDAEVRMDKCVEAFKTQISKIRTGRASPSLLDGIVVEYYGTPTPLRQLASVTVEDSRTLKINVFDRSMSPAVEKAIMASDLGLNPNSAGSDIRVPLPPLTEERRKDLTKIVRGEAEQARVAVRNVRRDANDKVKALLKDKEISEDDDRRSQDDVQKLTDAAIKKIEAALADKEAELMQF [P0A805] | 4.75 ± 0.095 | 4.0455 ± 0.00085 | 4.18 ± 0.071 | 5.16 ± 0.078 | 3.87 ± 0.05 | 2.851 ± 0.0093 | 4.84 ± 0.37 | 8.3 ± 0.69 | 3.38 ± 0.24 | 5.74 ± 0.96 | 5.04 ± 0.18 | 9.21 ± 0.22
MISLFDMFKVGIGPSSSHTVGPMKAGKQFVDDLVEKGLLDSVTRVAVDVYGSLSLTGKGHHTDIAIIMGLAGNEPATVDIDSIPGFIRDVEERERLLLAQGRHEVDFPRDNGMRFHNGNLPLHENGMQIHAYNGDEVVYSKTYYSIGGGFIVDEEHFGQDAANEVSVPYPFKSATELLAYCNETGYSLSGLAMQNELALHSKKEIDEYFAHVWQTMQACIDRGMNTEGVLPGPLRVPRRASALRRMLVSSDKLSNDPMNVIDWVNMFALAVNEENAAGGRVVTAPTNGACGIVPAVLAYYDHFIESVSPDIYTRYFMAAGAIGALYKMNASISGAEVGCQGEVGVACSMAAAGLAELLGGSPEQVCVAAEIGMEHNLGLTCDPVAGQVQVPCIERNAIASVKAINAARMALRRTSAPRVSLDKVIETMYETGKDMNAKYRETSRGGLAIKVQCD | 3.76 ± 0.4 | 3.54 ± 0.37 | 1.9 ± 0.28 | 2.48 ± 0.38 | 1.78 ± 0.14 | 1.52 ± 0.084 | 2.267 ± 0.0096 | 3.25 ± 0.43 | 2.08 ± 0.26 | 2.57 ± 0.32 | 3.4 ± 0.63 | 7.67 ± 0.65
MISVTLSQLTDILNGELQGADITLDAVTTDTRKLTPGCLFVALKGERFDAHDFADQAKAGGAGALLVSRPLDIDLPQLIVKDTRLAFGELAAWVRQQVPARVVALTGSSGKTSVKEMTAAILSQCGNTLYTAGNLNNDIGVPMTLLRLTPEYDYAVIELGANHQGEIAWTVSLTRPEAALVNNLAAAHLEGFGSLAGVAKAKGEIFSGLPENGIAIMNADNNDWLNWQSVIGSRKVWRFSPNAANSDFTATNIHVTSHGTEFTLQTPTGSVDVLLPLPGRHNIANALAAAALSMSVGATLDAIKAGLANLKAVPGRLFPIQLAENQLLLDDSYNANVGSMTAAVQVLAEMPGYRVLVVGDMAELGAESEACHVQVGEAAKAAGIDRVLSVGKQSHAISTASGVGEHFADKTALITRLKLLIAEQQVITILVKGSRSAAMEEVVRALQENGTC | 4.74 ± 0.18 | 4.41 ± 0.27 | 5.24 ± 0.92 | 4.44 ± 0.34 | 4.68 ± 0.057 | 3.37 ± 0.67 | 6.24 ± 1.3 | 9.83 ± 0.28 | 4.48 ± 0.31 | 7.03 ± 0.19 | 5.79 ± 0.27 | 10.2 ± 1.7
MITHISPLGSMDMLSQLEVDMLKRTASSDLYQLFRNCSLAVLNSGSLTDNSKELLSRFENFDINVLRRERGVKLELINPPEEAFVDGRIIRALQANLFAVLRDILFVYGQIHNTVRFPNLNLDNSVHITNLVFSILRNARALHVGEAPNMVVCWGGHSINENEYLYARRVGNQLGLRELNICTGCGPGAMEAPMKGAAVGHAQQRYKDSRFIGMTEPSIIAAEPPNPLVNELIIMPDIEKRLEAFVRIAHGIIIFPGGVGTAEELLYLLGILMNPANKDQVLPLILTGPKESADYFRVLDEFVVHTLGENARRHYRIIIDDAAEVARQMKKSMPLVKENRRDTGDAYSFNWSMRIAPDLQMPFEPSHENMANLKLYPDQPVEVLAADLRRAFSGIVAGNVKEVGIRAIEEFGPYKINGDKEIMRRMDDLLQGFVAQHRMKLPGSAYIPCYEICT [P0ADR8] | 5.75 ± 1.1 | 4.95 ± 0.11 | 5.02 ± 0.07 | 5.1 ± 0.26 | 4.58 ± 0.19 | 3.03 ± 0.13 | 6.01 ± 0.13 | 11.3 ± 0.31 | 5.07 ± 0.029 | 9.48 ± 0.11 | 5.93 ± 0.55 | 11.9 ± 0.48
MITIRDVARQAGVSVATVSRVLNNSTLVSADTREAVMKAVSELDYRPNANAQALATQVSDTIGVVVMDVSDAFFGALVKAVDLVAQQHQKYVLIGNSYHEAEKERHAIEVLIRQRCNALIVHSKALSDDELAQFMDNIPGMVLINRVVPGYAHRCVCLDNLSGARMATRMLLNNGHQRIGYLSSSHGIEDDAMRKAGWMSALKEQDIIPPESWIGAGTPDMPGGEAAMVELLGRNLQLTAVFAYNDNMAAGALTALKDNGIAIPLHLSIIGFDDIPIARYTDPQLTTVRYPIASMAKLATELALQGAAGNIDPRASHCFMPTLVRRHSVATRQNAAAITNSTNQAM | 5.93 | 3.96 |  |  |  |  | 4.74 ± 0.55 | 8.13 ± 1.9 |  |  |  | 10.9
MITLWGRNNSTNVKKVLLTLEELELPYEQILAGREFGINHDADFLAMNPNGLVPLLRDDESDLILWESNAIVRYLAAQYGQKRLWIDSPARRAEAEKWMDWANQTLSNAHRGILMGLVRTPPEERDQAAIDASCKECDALFALLDAELAKVKWFSGDEFGVGDIAIAPFIYNLFNVGLTWTPRPNLQRWYQQLTERPAVRKVVMIPVS [P0ACA7] | 5.15 ± 0.42 | 4.47 ± 0.4 | 5.27 ± 1.5 | 4.6 ± 0.45 | 4.53 ± 0.24 | 2.9 ± 0.27 | 6.21 ± 0.49 | 9.3 ± 0.54 | 4.49 ± 0.48 | 7.89 ± 0.23 | 5.74 ± 0.36 | 12.1 ± 0.25
